Experimental findings from patent US20050123546A1 (Hoffmann-La Roche, published 2005) are described below.

T1: human CD20 (human, UniProt P11836 1-297)
T1 construct: whole, on cells; also called human CD20 antigen; Bp35
T1 sequence (looked up): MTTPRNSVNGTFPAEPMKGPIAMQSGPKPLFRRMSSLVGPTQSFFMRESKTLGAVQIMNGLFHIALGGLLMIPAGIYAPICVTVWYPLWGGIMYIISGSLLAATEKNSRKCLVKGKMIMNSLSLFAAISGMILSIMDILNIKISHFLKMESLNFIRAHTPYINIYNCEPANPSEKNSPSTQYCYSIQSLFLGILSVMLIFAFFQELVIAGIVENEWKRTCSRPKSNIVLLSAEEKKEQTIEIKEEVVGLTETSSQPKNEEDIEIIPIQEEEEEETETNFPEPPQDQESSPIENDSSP

B1: chimeric B-Ly1 antibody chB-Ly1 (antibody, V domains shown)
VH: EVKLQQSGPELVKPGASVKISCKASGYAFSYSWMNWVKLRPGQGLEWIGRIFPGDGDTDYNGKFKGKATLTADKSSNTAYMQLTSLTSVDSAVYLCARNVFDGYWLVYWGQGTLVTVSA
VL: DIVLTQTTNPVTLGTSASISCRSSKSLLHSNGITYLYWYLQKPGQSPQLLIYQMSNLVSGVPDRFSSSGSGTDFTLRISRVEAEDVGVYYCAQNLELPYTFGGGTKLEIKR
notes: also called parental antibody B-Ly1; copies: 2 + 2
B2: B-HH1 complexed with the humanized B-Ly1 light chain (KV1) (antibody, human IgG1, V domains shown)
VH: QVQLVQSGAEVKKPGSSVKVSCKASGYTFSYSWMSWVRQAPGQGLEWMGRIFPGDGDTDYAQKFQGRVTITADKSTSTAYMELSSLRSEDTAVYYCARNVFDGYWLVYWGQGTLVTVSS
VL: DIVMTQTPLSLPVTPGEPASISCRSSKSLLHSNGITYLYWYLQKPGQSPQLLIYQMSNLVSGVPDRFSGSGSGTDFTLKISRVEAEDVGVYYCAQNLELPYTFGGGTKVEIKR
notes: also called BHH1-KV1
B3: B-HH1 (as compared in FIG. 12; light chain not stated) (antibody, V domains shown)
VH: QVQLVQSGAEVKKPGSSVKVSCKASGYTFSYSWMSWVRQAPGQGLEWMGRIFPGDGDTDYAQKFQGRVTITADKSTSTAYMELSSLRSEDTAVYYCARNVFDGYWLVYWGQGTLVTVSS
VL: DIVMTQTPLSLPVTPGEPASISCRSSKSLLHSNGITYLYWYLQKPGQSPQLLIYQMSNLVSGVPDRFSGSGSGTDFTLKISRVEAEDVGVYYCAQNLELPYTFGGGTKVEIK
B4: BHL11-KV1 (antibody, human IgG1, V domains shown)
VH: QVQLVESGGGLVKPGGSLRLSCAASGFTFSYSWMNWVRQAPGKGLEWVGRIFPGDGDTDYNGKFKGRVTITADKSTSTAYMELSSLRSEDTAVYYCARNVFDGYWLVYWGQGTLVTVSS
VL: DIVMTQTPLSLPVTPGEPASISCRSSKSLLHSNGITYLYWYLQKPGQSPQLLIYQMSNLVSGVPDRFSGSGSGTDFTLKISRVEAEDVGVYYCAQNLELPYTFGGGTKVEIKR
notes: B-HL8 with the single mutation Glu1Gln
B5: BHH2-KV1 humanized IgG1 B-Ly1 anti-human CD20 antibody (non-glycoengineered) (antibody, V domains shown)
VH: QVQLVQSGAEVKKPGSSVKVSCKASGYAFSYSWMNWVRQAPGQGLEWMGRIFPGDGDTDYNGKFKGRVTITADKSTSTAYMELSSLRSEDTAVYYCARNVFDGYWLVYWGQGTLVTVSS
VL: DIVMTQTPLSLPVTPGEPASISCRSSKSLLHSNGITYLYWYLQKPGQSPQLLIYQMSNLVSGVPDRFSGSGSGTDFTLKISRVEAEDVGVYYCAQNLELPYTFGGGTKVEIKR
notes: also called BHH2-KV1-wt
B6: B-HH3 complexed with the humanized B-Ly1 light chain (KV1) (antibody, human IgG1, V domains shown)
VH: QVQLVQSGAEVKKPGSSVKVSCKASGYAFSYSWMNWVRQAPGQGLEWMGRIFPGDGDTDYNGKFKGRVTITADKSTSTAYMELSSLRSEDTAVYLCARNVFDGYWLVYWGQGTLVTVSS
VL: DIVMTQTPLSLPVTPGEPASISCRSSKSLLHSNGITYLYWYLQKPGQSPQLLIYQMSNLVSGVPDRFSGSGSGTDFTLKISRVEAEDVGVYYCAQNLELPYTFGGGTKVEIKR
notes: also called BHH3-KV1
B7: BHL8-KV1 (antibody, human IgG1, V domains shown)
VH: EVQLVESGGGLVKPGGSLRLSCAASGFTFSYSWMNWVRQAPGKGLEWVGRIFPGDGDTDYNGKFKGRVTITADKSTSTAYMELSSLRSEDTAVYYCARNVFDGYWLVYWGQGTLVTVSS
VL: DIVMTQTPLSLPVTPGEPASISCRSSKSLLHSNGITYLYWYLQKPGQSPQLLIYQMSNLVSGVPDRFSGSGSGTDFTLKISRVEAEDVGVYYCAQNLELPYTFGGGTKVEIKR

The experiment has as its target T1, human CD20. The experiment is described as follows: flow cytometry on Raji cells. In general terms: In flow cytometry, cells or beads pass a laser one at a time.
Description: 500.000 in 180 μl FACS buffer (PBS containing 2% FCS and 5 mM EDTA) were transferred to 5 ml polystyrene tubes and 20 ul 10 fold concentrated anti-CD20 antibody samples (1-5000 ng/ml final concentration) or PBS only were added and the tubes were incubated at 4° C. for 30 min. Subsequently, samples were washed twice with FACS buffer and pelleted at 300×g for 3 min. Supernatant was aspirated off and cells were taken up in 100 μl FACS buffer and 1 μl anti-Fc-specific F(ab′)₂—FITC fragments (Jackson Immuno Research Laboratories, USA) was added and the tubes were incubated at 4° C. for 30 min. Samples were washed twice with FACS buffer and taken up in 500 μl of FACS buffer containing 0.5 μg/ml PI for analysis by Flow Cytometry. Binding was determined by plotting the geometric mean fluorescence against the antibody concentrations.
In the case of B1, the binding result was “binds”.

As to B2, the binding result is on record as “binds”.

As to B3, the “binding intensity/stoichiometry compared to B-Ly1” value was ~0.5 fold of chB-Ly1.

Turning to B4, the binding result was “binds”.

B5: the binding result is recorded as “binds”.

With B6, the binding result was “binds”.

Take B7: the binding result is recorded as “binds”.
